According to PMC8441738 (MedComm, 2021):

B1: MA1 monoclonal antibody (antibody, V domains shown)
VH: QVQLKESGPGLVAPSQSLSITCTVSGFSLSDYSISWIRQPPGKGLEWLGVIWGGGSTYYNSALKSRLSISKDNSKSQVFLKMNSLQTDDTAMYYCAKHPLYYGSNSDGYYAMDYWGQGTSVTVSS
VL: DIVMTQSHKFMSTSVGDRVSITCKASQDVGIVVAWYQQKPGQSPKLLIYWASTRHTGVPDRFTGSGSGTDFTLTISNVQSEDLADYFCQQYSSYPLTFGGGTKLEIK
notes: also called group I mAb; source: hybridoma cell line or transfection of linear expression cassettes
B2: MA5 monoclonal antibody (antibody, V domains shown)
VH: EVMLVESGGGLVKPGGSLKLSCAASGFMFSRYAMSWVRQTPEKRLEWVATISSGGSYTYYPDSVKGRFTMSRDNAKNTLYLQMSSLRSEDTAMYNCARHDGNYVDYAMDYWGQGTSVTVSS
VL: QIVLTQSPAIMSASLGEEITLTCSASSSVSHMHWYQQKSGTSPKLLIYSTFNLASGVPSRFSGSGSGTFYSLTISSVEAEDAADYYCHQWSSWTFGGGTKLEIK
notes: also called group IV mAb; source: hybridoma cell line or transfection of linear expression cassettes

Biological target: recombinant SARS-CoV-2 RBD-Fc (Severe acute respiratory syndrome …, UniProt P0DTC2)
Test: ELISA; natural RBD-Fc immobilised on ELISA plates

Row | Binder | binding result
1 | B1 | binds
2 | B2 | binds
